Measurements: the DeepSol protein solubility set

assay: soluble on expression in E. coli; label from the status in PepcDB or PDB records

Sequence	soluble on expression in E. coli
MSLVTSMTFYETRFPEDISYGSTGGPEFTTSIIETNNGYEYRKINISYPRNKYNIMYSVKSEEELLKLINFFYIHKGKAIGFRFKDWADYKAIQQKIGIGDNHQTTFQLVKTYKVDQFSYIRTITKPVINTVKIYYNDSIKNNGFSVNLSNGQIKFDIAPKDGIEIFADYEFDVPVRFDSDYLPYSIDNYKQYNCNNITLIEVKTEGHHHHHH	not soluble
MKNLILVLGCFFFLISCQQTEKEKLEELVKNWNGKEVLFPTNPSFTLYGKTPVDFKIPVSDYKIVTYVDSLGCSSCKLQLPKWKEFMKYADSIVGYQIPVLFFLHPANVREMRSVLKQNRFDYPVCMDTEDTFNKVNKFPSQLNFQTFLLDKNNHVIAIGNPVHNYDVRELYIHLISGGIDGDSLSNMRTVIKIEEDMVDLGSFDWRREQHITFEIHNIGNNNLVVYDNKTSCGCTSVEYSKEPVQPGKSLAVKVTYKADHPEHFNKTIILYCNASASPLELKITGNAK	not soluble
MGSDKIHHHHHHMSKIVALYNNKGGVSKTTTNFNLGVYLSQQGKRVLMVDCDPQCNLTELFFASRDDLEEPDVQLPGTSIYDALLPRFKGHQGRIEQSGIEVSEHSLYSSLFLFRGDLEFSRAETYLGTSWSQAVTENIHEKNTYIVFNKLMKDIGSARGYDYILCDVGPSTGAITKTVIISCDEIVIPLVPDRFCYQAVKLLGSVISEWIENHKIISDSLVPFGIEPFEGNPKLAGTVLQNFKVHAGSKVKESYIKWQKKITEEIQSSLCKENGFSPKVGFNIEEPYTASIKDVAVLAPVAQLFGRAIFDIEQEHTKEASSNGQMYYGTVWQPWLDRMSEYKEEIAKIAEAIS	not soluble
MPPKPKKSTGAKKKVSKLNKRPSKISVVSVNERSKNERSVMQSIEQEEATNNEIVPTPKKTTAQIAQQPTPTLPQIIAKQEPEVAMKTMMLPPPSDPPPPPPPVAPHQPPPQLATSAQPPQPPVINSQLPRMSPAPAIPPSMAQPLLQSPSPGADIAIRRPSKEKTDEKSVDETGGSDKKKRTEVICSWIRLVLQNGVAGLKKEYRDSPNEAPEDIATSFLGNPTRNRYRNIPCCDITRVKLTDDPHFYIHANLVSSGPNPRRFICTQAPLNGTIEEFWKMIIVTGIEYIVMLCELVEKGKPKSAEYFPSQIGQTTKIGRLCTVTKESRVDIDKTLVMSTMRISKPGDNAVVKIVKHIHWRNWPDHGVPDNFLSPFRLLTVVKNCTKPIVVHCSAGVGRTGTLALILIILESICLPDFIGVPRLLAKLREERFRAVQTEMQYLYAHRCVLEYLALKKYVQSREDFAKFAKDYEQALAMCPKEA	not soluble
KGHLTRLGLEFFDQPAVPLARAFLGQVLVRRLPNGTELRGRIVETEAYLGPEDEAAHSRGGRQTPRNRGMFMKPGTLYVYIIYGMYFCMNISSQGDGACVLLRALEPLEGLETMRQLRSTLRKGTASRVLKDRELCSGPSKLCQALAINKSFDQRDLAQDEAVWLERGPLEPSEPAVVAAARVGVGHAGEWARKPLRFYVRGSPWVSVVDRVAEQDTQA	soluble
MIIKGRAHKFGDDVDTDAIIPGPYLRTTDPYELASHCMAGIDENFPKKVKEGDVIVAGENFGCGSSREQAVIAIKYCGIKAVIAKSFARIFYRNAINVGLIPIIANTDEIKDGDIVEIDLDKEEIVITNKNKTIKCETPKGLEREILAAGGLVNYLKKRKLIQSKKGVKT	soluble
MAHHHHHHMYYADVDYEVPSRVVQLTDATFDTIVMDPTKDVFVLYCVTWSRHCRSAVKLWADLSISQFKRPTADTFVAALIDAEAFPETAKRMGVKSYPTMLFYTRLEKATPLEYNGQGLLPLLDSFVFQNS	not soluble
MPAIFTHEGKVEGVPGNYPLTAENLFRIGLALCTLWILDKEIEEPTLSIPETNFVTLALSVGFMNAGGSVNVGKGGDIKLFLQKGEIYVLEFQPLSETDIKKLESILFGRAPIPKKTGEDIGSFKC	soluble
IGFQRGAQGEGLVVIDLQGTNTPVDVQQQGSKVVVRFPGIKIPTHLARRLNTTDFATPVASIDSYNDGSNGVISIQSTGSYEYMAYQAENKLTISLKRPQDNV	not soluble
AKKIGLFYGTQTGKTESVAEIIRDEFGNDVVTLHDVSQAEVTDLNDYQYLIIGCPTENIGELQSDWEGLYSELDDVDFNGKLVAYFGTGDQIGYADNFQDAIGILEEKISQRGGKTVGYWSTDGYDFNDSKALRNGKFVGLALDEDNQSDLTDDRIKSWVAQLKSEFGL	soluble
MSLSHAETIKLGMSIPLSGSGANWGKGSEWLCAKAAEEIKAAGGVKVQGKVYDFECVGYDNKYNAAEGAKVAQALVSRDGVKYVAGSIGVAPVRALQSLTERRGVLLFTAAWGNSIKGPKFPLTFTQMNSVNEISEPMIAHVKKLHPEIKTVVLLNPNDATGQETEKVAKAAWEKNGVKVLASDWYERGTSEFQPIAAKLNSLKPDLVDLASTPPADAGLVFRELKALGWNGVKVVEVGTGADGLLATGKDAVDGTYLGAAVAVDGLSAHQKALNDGVKKVTGENINSVQIGFYDSVYAIKAAMEKAQSVDPQQVAKVMPDVKFQSFFGEVDFGGKSVYGSDQQMQLPVIITQISGTALKEVGRVQKEGHHHHHH	soluble
QSIVVDMREFRSELPSLIHRRGIDIEPVTLEVGDYILTPEMCVERKSISDLIGSLNNGRLYSQCISMSRYYKRPVLLIEFD	not soluble
GPGSMSSKAALLAVLAGSGQEHLVDDYDALSPSEQTTLATQILSYTNAQWKHMNVILRDSLRLLNLSNAAAGTGGGDAATAAPNITPPPADTIINVPALLAKRPSELAAIRAAGMRVVASGEGAVLLMAGGSGTRLGMTIPKGMVECDKLVSGRSLFAYHCQRIRKMERMAAAAAASLSQPSAVAAAGAAPVPPGAGRGTMPLLVTTSDQNDTATRQFFHDHDFFGLLPNQVFFSRQSSLPCYDEATGRVLMQARGSICLAPGGNAGVYESLAKASATTSGSQSVLAQIEARGVRYVQIVSVDNILARVGDPYFFGVAASYQAEVVLKTVPKVSAAEKVGVVAQVDGEWAVVEYTEIGDRRSAETDPATGELAFNCGSIASHCCSLDFLALAATYMETSTFYHAARKTIPTINGPAPAIKLEAFIFDVFRYAKDVPSRAERAKKAPLPDALQILQVDRSMEFAPIKNADGAAADTPTTAAQLLLDLHTRWVTEAIEAAPGTYAVASTSTSAMYTALERATALQRLRDGQCCWEISPLVSYEGEGLAAYVGQLIHRSATGSGVLGLEEATAGTANM	soluble
EADYKQATALELATLVREKKVTSEELVKIALAITKRENPTLNAVITLREEAALTEAKALQDTGQPFLGVPLLLKGLGQSLKGESNTNGFGFLQDQVAGGTSTFVKALQNAGFIIIGQTNYPELGWKNISDSKLYGVSVNPWNPNHYSGGSSGGAGASVAAAFVPIASGSDAGGSIRIPASWTGTVGLKPSRGVIIGNSNSAKGQTVHFGLSRTVADTNALFETLLTKKDLPAGHLSQAQPIAYTTESPAGTPISAEAKEAVAEAVAFLKDQGYTLVEVKHPVDGERLMKNYYTVAAGSAGIADFMARQKLKRPLERNDVELLTWALFQTGKNITSEETTAAWTDIALQAQAMDEFYQQYPILLTPTTAATAPSIDNPLLKPEHAAQMEKIDQLSPAEQKQLIYDQWLTAFTYTPFTQQANLFGHPALSVPTYVSKEGLPLGIQFNSALNEDRTLLQLGALFENNHK	not soluble
MSLQNMETRYTHSPADIRHYSTEQLRDEFLVEKVFIPGAISLTYTHNDRMIFGGVTPTTEELEIILDKELGVDYFLERRELGVINIGGPGFIEIDGAKETMKKQDGYYIGKETKHVRFSSENPDNPAKFYISCVPAHHKYPNVKISIDEITPMETGDPLTLNQRKIYQYIHPNVCESCQLQMGYTILEPGSAWNTMPCHTHERRMEAYVYFDMEEDTRIFHMMGKPDETKHLVMSNEQAAISPSWSIHSGVGTSNYSFIWAMCGENITYTDMDMVAMDQLKEGHHHHHH	soluble
